The target in test [1] is T1, mouse CD40 on cells (mouse, UniProt P27512 20-289).
T1 construct: whole, on cells; also called mouse CD40 on HEK293 cells; CD40 on mouse B cells
T1 sequence (looked up): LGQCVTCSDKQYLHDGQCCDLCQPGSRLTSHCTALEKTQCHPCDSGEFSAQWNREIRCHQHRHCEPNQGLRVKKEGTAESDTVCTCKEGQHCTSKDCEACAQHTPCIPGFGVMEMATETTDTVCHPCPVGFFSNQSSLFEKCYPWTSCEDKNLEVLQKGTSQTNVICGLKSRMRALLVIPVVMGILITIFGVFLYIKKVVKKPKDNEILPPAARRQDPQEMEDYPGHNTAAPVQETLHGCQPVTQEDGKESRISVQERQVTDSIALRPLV
The test is described as follows: flow cytometry, HEK293 transfectants vs control cells. As for the experimental part:
(§1) The binding affinity of anti-human CD40 antibodies to human and cynomolgus monkey CD40 was measured by Octet assay (Table 3), quantifying association rate (Kon), disassociation rate (Kdis), and equilibrium binding constant (KD). Cross-reactivity of anti-CD40 antibodies to related TNF receptor superfamily (TNFRSF) members was evaluated by expressing human TNFR1, TNFR2, TNFR10, or TNFR14 on HEK293 cells by transient transfection of expression vectors encoding these genes. Binding of indicated anti-human CD40 antibody to these transfected cells was determined by flow cytometry. […] Cross-reactivity of anti-CD40 antibodies to cynomolgus monkey and mouse CD40 was evaluated by expressing cynomolgus monkey or mouse CD40 on HEK293 cells by transient transfection of expression vectors encoding these genes. Binding of indicated anti-human CD40 antibody to cells overexpressing cynomolgus monkey and mouse CD40 was determined by flow cytometry.
A general note: Flow cytometry measures light scatter and fluorescence of single cells or particles in a stream.

Test [2] addresses T2, human TNFR2 (human, UniProt P20333 23-461).
T2 construct: whole, on cells
T2 sequence (looked up): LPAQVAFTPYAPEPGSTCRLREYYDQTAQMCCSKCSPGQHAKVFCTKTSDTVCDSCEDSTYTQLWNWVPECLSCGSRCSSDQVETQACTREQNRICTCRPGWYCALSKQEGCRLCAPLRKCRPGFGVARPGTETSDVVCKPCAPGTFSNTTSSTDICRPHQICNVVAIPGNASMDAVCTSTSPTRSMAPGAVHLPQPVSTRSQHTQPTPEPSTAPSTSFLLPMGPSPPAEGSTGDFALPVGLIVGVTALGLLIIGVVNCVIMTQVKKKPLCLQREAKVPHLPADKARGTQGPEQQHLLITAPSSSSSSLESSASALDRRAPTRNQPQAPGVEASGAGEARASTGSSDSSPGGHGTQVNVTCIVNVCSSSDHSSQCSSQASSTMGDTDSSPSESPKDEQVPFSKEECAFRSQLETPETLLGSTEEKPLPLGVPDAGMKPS
The description is as above. How it is done:
as §1

Test [3] addresses T3, human TNFR10 (human).
T3 construct: whole, on cells; Name as printed is ambiguous (TNFRSF10A-D)
The description is as above. How it is done:
as §1

Test [4] addresses T4, human TNFR1 (human, UniProt P19438 30-455).
T4 construct: whole, on cells
T4 sequence (looked up): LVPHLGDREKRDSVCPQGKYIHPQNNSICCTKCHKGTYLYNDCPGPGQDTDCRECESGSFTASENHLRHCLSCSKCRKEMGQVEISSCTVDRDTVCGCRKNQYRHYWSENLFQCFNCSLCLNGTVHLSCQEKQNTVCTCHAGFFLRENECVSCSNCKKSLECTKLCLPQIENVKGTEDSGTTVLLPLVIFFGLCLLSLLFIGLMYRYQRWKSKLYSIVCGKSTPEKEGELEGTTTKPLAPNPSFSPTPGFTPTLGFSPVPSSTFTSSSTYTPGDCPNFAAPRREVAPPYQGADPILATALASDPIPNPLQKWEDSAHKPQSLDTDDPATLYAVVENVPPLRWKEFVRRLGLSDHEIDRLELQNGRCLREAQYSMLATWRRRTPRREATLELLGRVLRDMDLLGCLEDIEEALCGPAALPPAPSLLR
Described as above. As for the experimental part:
as §1

Test [5] has as its target T5, human TNFR14 (human, UniProt Q92956 39-283).
T5 construct: whole, on cells
T5 sequence (looked up): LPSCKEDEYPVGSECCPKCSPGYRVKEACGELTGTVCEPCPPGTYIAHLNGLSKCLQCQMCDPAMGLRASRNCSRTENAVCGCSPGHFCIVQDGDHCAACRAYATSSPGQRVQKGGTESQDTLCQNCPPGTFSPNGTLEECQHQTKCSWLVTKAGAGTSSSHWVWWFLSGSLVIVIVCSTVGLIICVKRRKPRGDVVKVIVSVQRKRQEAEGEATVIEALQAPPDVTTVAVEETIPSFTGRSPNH
The description is as above. How it is done:
as §1

The target in test [6] is T6, cynomolgus monkey CD40 on cells (cynomolgus monkey, UniProt P25942 21-277 (human entry)).
T6 construct: also called cyno CD40 on HEK293 cells; CD40 on cynomolgus monkey B cells
T6 chain: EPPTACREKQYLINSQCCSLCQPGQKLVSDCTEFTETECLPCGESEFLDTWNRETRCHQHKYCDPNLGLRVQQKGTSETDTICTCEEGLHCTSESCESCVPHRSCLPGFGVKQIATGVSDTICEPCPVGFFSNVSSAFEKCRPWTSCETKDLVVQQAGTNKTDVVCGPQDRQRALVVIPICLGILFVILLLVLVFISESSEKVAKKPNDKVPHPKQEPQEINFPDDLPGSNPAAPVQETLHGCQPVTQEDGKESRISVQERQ
Described as above. How it is done:
as §1

Test [7] concerns the target T7, human CD40 on cells (human, UniProt P25942 21-277).
T7 construct: also called CD40 receptor on human B cells
The test is described as follows: flow cytometry, labelled CD40L on CD40-293T cells, antibody at 5 ug/ml. How it is done: (§2) Percent ligand binding inhibition was calculated as [(CD40L binding gMFI in the absence of anti-CD40)−(CD40L binding gMFI in the presence of anti-CD40)]/(CD40L binding gMFI in the absence of anti-CD40). gMFI: geometric mean fluorescent intensity. All anti-CD40 antibodies show minimal effects on the ability of CD40L to bind to the CD40 receptor (Table 7).
Target sequence in this assay (P25942 21-277 limits assumed): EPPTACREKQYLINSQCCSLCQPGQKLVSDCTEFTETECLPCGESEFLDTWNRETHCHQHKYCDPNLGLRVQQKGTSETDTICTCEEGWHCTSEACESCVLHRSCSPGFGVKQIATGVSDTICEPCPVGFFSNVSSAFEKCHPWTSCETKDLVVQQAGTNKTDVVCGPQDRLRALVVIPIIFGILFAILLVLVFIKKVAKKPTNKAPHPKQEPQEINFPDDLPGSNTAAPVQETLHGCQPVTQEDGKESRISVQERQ

The target of test [8] is T7, human CD40 on cells. The test can be described thus: flow cytometry, labelled CD40L on CD40-293T cells, antibody at 20 ug/ml. As for the experimental part: as §2
Target sequence in this assay (P25942 21-277 limits assumed): as above
For test [9], the target named is T7, human CD40 on cells. The test is described as follows: cell-based or functional assay.
Target sequence in this assay (P25942 21-277 limits assumed): as above
The target of test [10] is T1, mouse CD40 on cells. The test is described as follows: flow cytometry, HEK293 transfectants.
Test [11] addresses T7, human CD40 on cells. The test is described as follows: cell-based or functional assay. The source holds these as a separate data set.
Test [12] concerns the target T7, human CD40 on cells. The test can be described thus: flow cytometry, labelled CD40L on CD40-293T cells, antibody at 10 ug/ml. As for the experimental part: as §2
Target sequence in this assay (P25942 21-277 limits assumed): as above
The target in test [13] is human CD40 (human, UniProt P25942 21-193, limits assumed). The test can be described thus: Octet. As for the experimental part: as §1
Sequence of human CD40 (human, UniProt P25942 21-193, limits assumed) (P25942 21-193 limits assumed): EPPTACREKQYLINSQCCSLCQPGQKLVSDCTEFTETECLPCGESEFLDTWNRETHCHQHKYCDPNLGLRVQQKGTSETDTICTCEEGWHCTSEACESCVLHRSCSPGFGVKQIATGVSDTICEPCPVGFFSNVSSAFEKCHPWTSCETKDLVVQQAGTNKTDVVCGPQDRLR
A general note: BLI is a label-free optical method that tracks binding on a fibre tip over time.

The target in test [14] is T7, human CD40 on cells. The test is described as follows: flow cytometry, labelled CD40L on CD40-293T cells, antibody at 2.5 ug/ml. How it is done:
as §2
Target sequence in this assay (P25942 21-277 limits assumed): as the sequence (P25942 21-277 limits assumed) above

The target of test [15] is T2, human TNFR2. The test can be described thus: flow cytometry, HEK293 transfectants. How it is done: as §1
For test [16], the target named is T4, human TNFR1. The test can be described thus: flow cytometry, HEK293 transfectants. How it is done:
as §1

In test [17] the target is T5, human TNFR14. The test can be described thus: flow cytometry, HEK293 transfectants. How it is done:
as §1

The target in test [18] is human CD40 (human, UniProt P25942 21-277). The test is described as follows: cell-based or functional assay.
The target in test [19] is T8, cynoMSLN(296-598) (cynomolgus monkey).
T8 chain: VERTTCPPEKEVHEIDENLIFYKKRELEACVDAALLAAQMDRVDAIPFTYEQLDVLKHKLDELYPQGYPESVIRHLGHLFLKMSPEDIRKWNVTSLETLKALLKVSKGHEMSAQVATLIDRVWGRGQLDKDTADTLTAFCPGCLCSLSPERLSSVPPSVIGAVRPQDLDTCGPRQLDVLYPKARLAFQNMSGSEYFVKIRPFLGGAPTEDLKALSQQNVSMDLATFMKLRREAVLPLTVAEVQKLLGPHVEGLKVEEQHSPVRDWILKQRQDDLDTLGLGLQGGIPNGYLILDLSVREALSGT
The test is described as follows: Octet. How it is done:
(§3) A panel of mesothelin×CD40 bispecific antibodies were generated in the IgG-scFv format (Table 13) and evaluated for binding to soluble forms of human and cynomolgus monkey CD40 and human and cynomolgus monkey mesothelin using the Octet assay (Table 14). Association rate (Kon), disassociation rate (Kdis), and equilibrium binding constant (KD) were calculated. […] These bispecific antibodies were next evaluated for their ability to induce mesothelin-dependent activation of human B cells. CHO cells expressing human mesothelin were seeded into a 96 well plate. The next day varying concentrations of the mesothelin×CD40 IgG-scFv antibodies were added to the wells along with purified human B cells and the plates were incubated for an additional 48 hours. Upregulation of CD86, a marker of CD40-mediated B cell activation, was quantified on B cells by flow cytometry.

Test [20] addresses T9, huCD40(1-193) (human, UniProt P25942 21-193).
T9 construct: also called soluble human CD40
The test is described as follows: Octet. How it is done: as §3

Test [21] has as its target T10, cynoCD40(1-193) (cynomolgus monkey, UniProt P25942 21-193 (human entry)).
T10 construct: also called soluble cynomolgus monkey CD40
T10 chain: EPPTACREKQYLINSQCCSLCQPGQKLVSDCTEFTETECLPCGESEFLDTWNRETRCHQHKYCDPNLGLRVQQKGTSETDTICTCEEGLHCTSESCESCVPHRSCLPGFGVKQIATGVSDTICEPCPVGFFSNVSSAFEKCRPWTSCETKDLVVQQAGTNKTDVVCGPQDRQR
The test is described as follows: Octet. How it is done: as §3

The target in test [22] is T11, huMSLN(296-598) (human, UniProt Q13421 296-598).
T11 construct: also called soluble human mesothelin
T11 sequence (Q13421 other isoform, or with tags, fused parts or gaps): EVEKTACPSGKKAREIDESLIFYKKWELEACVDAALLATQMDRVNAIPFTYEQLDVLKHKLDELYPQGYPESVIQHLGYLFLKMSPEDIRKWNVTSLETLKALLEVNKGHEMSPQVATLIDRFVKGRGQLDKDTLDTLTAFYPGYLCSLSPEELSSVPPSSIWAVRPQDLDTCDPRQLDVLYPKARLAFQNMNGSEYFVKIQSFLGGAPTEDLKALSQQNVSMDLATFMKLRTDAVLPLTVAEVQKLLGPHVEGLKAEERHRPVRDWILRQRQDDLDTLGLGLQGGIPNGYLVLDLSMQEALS
The test is described as follows: Octet. How it is done:
as §3

Like-named read-outs stand apart in the source and are kept apart here.

B1: 33H9 (antibody, IgG4, V domains shown)
VH: QVQLVESGGGVVQPGRSLRLSCAASGFTFSSHGMHWVRQPPGKGLEWVAVIWYDGSNEYYGDSVKGRFTISRDNSKNTLYLQMNSLRVEDTAVYYCTRGGGHWNYEGHYYGMDVWGQGTTVTVSS
VL: QAVPTQPSSLSASPGASASLTCTLRSGINVGSSRIYWYQQKPGSPPQFLLRYTSDSDKLQGSGVPSRFSGSKDASANAGLLLISGLQSEDEADYYCMIWHSSAVVFGGGTKLTVLG
notes: also called 4897-1
Take B1: the “fold over control (gMFI)” value in test [1] was 0.9 fold; in test [2], 0.93 fold; in test [3] it was 0.89 fold; in test [4], 1.03 fold; in [5], 0.88 fold; in [6] it was 73 fold. Further, the “Ligand Binding Inhibition (%)” value was 9% in test [7], 1% in test [8], 3% in test [12] and -3% in test [14]. In test [9], the “human B cell proliferation, no crosslinking, % Max Activity” value worked out at 2.3%. The “human B cell proliferation, no crosslinking, EC50” value was more than 13.4 nM in test [9] and more than 16.7 nM in [11]. In addition, the “human B cell proliferation, with protein G crosslinking, % Max Activity” value in [9] was 88.9%. Also, the “human B cell proliferation, with protein G crosslinking, EC50” value was found to be 0.19 nM in test [9] and 0.344 nM in test [11]. For the same molecule, the binding result in test [10], in [15], in [16] and in [17] was “no binding” throughout. For the same molecule, in test [11], the “human B cell proliferation, no crosslinking, Max Fold Change” value is 1.35 fold. Also, the “human B cell proliferation, with protein G crosslinking, Max Fold Change” value in test [11] was 23.2 fold. In [13], the Kd (as a rule, a measure of binding affinity in units of concentration) was determined as 0.58 nM. For the same molecule, the koff (in general, the first-order rate constant of dissociation) in test [13] was 0.000238 s⁻¹. Also, the kon – broadly, a measure of how fast the partners come together – in test [13] came out at 407000 M⁻¹ s⁻¹.

B2: 6032-2 (bispecific antibody)
heavy: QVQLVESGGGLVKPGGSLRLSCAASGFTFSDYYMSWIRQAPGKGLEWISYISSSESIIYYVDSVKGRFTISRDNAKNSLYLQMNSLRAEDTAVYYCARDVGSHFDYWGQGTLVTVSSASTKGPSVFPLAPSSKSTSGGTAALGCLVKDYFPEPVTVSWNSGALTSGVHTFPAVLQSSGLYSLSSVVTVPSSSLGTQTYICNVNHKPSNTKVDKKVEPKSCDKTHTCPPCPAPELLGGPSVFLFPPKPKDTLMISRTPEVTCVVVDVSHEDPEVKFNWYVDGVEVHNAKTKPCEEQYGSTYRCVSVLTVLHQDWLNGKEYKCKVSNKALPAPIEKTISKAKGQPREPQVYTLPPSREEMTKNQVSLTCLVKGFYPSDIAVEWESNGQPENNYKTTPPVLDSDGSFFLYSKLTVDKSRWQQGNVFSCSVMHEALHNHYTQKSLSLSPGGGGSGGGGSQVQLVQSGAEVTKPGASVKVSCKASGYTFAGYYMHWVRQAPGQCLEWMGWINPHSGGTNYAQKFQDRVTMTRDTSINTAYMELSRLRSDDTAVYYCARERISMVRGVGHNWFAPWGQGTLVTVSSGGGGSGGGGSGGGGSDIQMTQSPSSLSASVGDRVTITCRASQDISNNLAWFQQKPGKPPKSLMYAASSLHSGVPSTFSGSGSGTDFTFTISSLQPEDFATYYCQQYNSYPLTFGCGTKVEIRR
light: DIQMTQSPSSVSASVGDRVTITCRASQDISRWLAWYQQKPGKAPKLLISAASRLQSGVPSRFSGSGSGTDFTLTISSLQPEDFAIYYCQQAKSFPRTFGQGTKVEIKRTVAAPSVFIFPPSDEQLKSGTASVVCLLNNFYPREAKVQWKVDNALQSGNSQESVTEQDSKDSTYSLSSTLTLSKADYEKHKVYACEVTHQGLSSPVTKSFNRGEC
notes: IgG-scFv: IgG (MSLN) 6F4, scFv (CD40) 29H10
For B2, in test [18], the “EC50 (nM), CD86 upregulation on human B cells with huMSLN-CHO cells” value turned out to be 0.00935 nM. Besides, the Kd stood at 5.8 nM in test [19], 2 nM in test [20], 1.7 nM in test [21] and 0.4 nM in [22]. For the same molecule, the koff stood at 0.00199 s⁻¹ in test [19], 0.000407 s⁻¹ in test [20], 0.000407 s⁻¹ in test [21] and 0.000306 s⁻¹ in test [22]. Moreover, the kon amounted to 345000 M⁻¹ s⁻¹ in test [19], 204000 M⁻¹ s⁻¹ in test [20], 238000 M⁻¹ s⁻¹ in test [21] and 692000 M⁻¹ s⁻¹ in test [22].

Values taken from patent US20260109776A1 (Amgen, published 2026).
